Measurements as given in patent US20240287501A1 (VIB VZW, published 2024).

What was measured:
GFP-tagged PDC1 = molecular target: T1, GFP-tagged PDC1 (Saccharomyces cerevisiae, UniProt P06169 2-563); assay: co-immunoprecipitation, Nb coupled to NHS-agarose beads, lysate of the yeast strain expressing the GFP-tagged target, SDS-PAGE
T1 construct: Yeast GFP Fusion Collection strain; also called Yeast GFP fusion collection GFP(+)12, F8; not shown: GFP tag
T1 sequence (looked up): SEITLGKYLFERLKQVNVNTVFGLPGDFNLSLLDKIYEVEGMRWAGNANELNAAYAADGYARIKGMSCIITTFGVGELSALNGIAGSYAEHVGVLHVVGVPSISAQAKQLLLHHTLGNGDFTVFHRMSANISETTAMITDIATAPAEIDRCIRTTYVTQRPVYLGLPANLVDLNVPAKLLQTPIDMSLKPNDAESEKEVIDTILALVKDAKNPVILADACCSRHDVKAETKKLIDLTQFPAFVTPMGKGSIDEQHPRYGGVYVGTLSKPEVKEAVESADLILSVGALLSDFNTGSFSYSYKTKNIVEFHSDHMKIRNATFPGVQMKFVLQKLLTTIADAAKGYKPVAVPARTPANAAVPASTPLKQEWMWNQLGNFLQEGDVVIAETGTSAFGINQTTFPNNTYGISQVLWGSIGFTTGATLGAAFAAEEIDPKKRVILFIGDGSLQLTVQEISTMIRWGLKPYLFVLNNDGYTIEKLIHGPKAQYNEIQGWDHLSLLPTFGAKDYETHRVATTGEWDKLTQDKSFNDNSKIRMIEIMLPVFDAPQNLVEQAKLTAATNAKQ
Method: (§1) Two PDC1-specific Nanobodies (51=Nb clone CA17451 corresponding to SEQ ID NO: 7, 52=CA17452-SEQ ID NO: 8) were characterized by co-immunoprecipitation assays. Each PDC1-specific Nanobodies was covalently linked to NHS-agarose beads. The beads that were functionalized with these PDC1-specific Nanobodies were incubated for an hour at 4° C. on a rotating device with either an EBY100 lysate or the lysate of the engineered Yeast strain expressing PDC1 (Yeast GFP fusion collection reference: GFP(+)12, F8) as a GFP-tagged protein. After washing, these beads were resuspended in SDS-PAGE loading dye and analyzed on SDS-PAGE (FIG. 5A). Separated proteins were transferred to a PVDF membrane and the Western blot (FIG. 5B) was developed with GFP-specific antibody to confirm the presence of GFP-tagged PDC1.

[1] = molecular target: T2, PDC1 (native, from EBY100 lysate) (Saccharomyces cerevisiae, UniProt P06169 2-563); assay: co-immunoprecipitation, Nb coupled to NHS-agarose beads, EBY100 yeast lysate (native target), SDS-PAGE
T2 construct: mature; Endogenous untagged protein; also called YLR044C
T2 sequence (looked up): T1 sequence (looked up)
Method: as §1

GFP-tagged SSA1 [2] = molecular target: T3, GFP-tagged SSA1 (Saccharomyces cerevisiae, UniProt P10591 2-642); assay: co-immunoprecipitation, Nb coupled to NHS-agarose beads, lysate of the yeast strain expressing the GFP-tagged target, SDS-PAGE
T3 construct: Yeast GFP Fusion Collection strain; also called Yeast GFP fusion collection GFP(+)10, E4; not shown: GFP tag
T3 sequence (P10591 2-642): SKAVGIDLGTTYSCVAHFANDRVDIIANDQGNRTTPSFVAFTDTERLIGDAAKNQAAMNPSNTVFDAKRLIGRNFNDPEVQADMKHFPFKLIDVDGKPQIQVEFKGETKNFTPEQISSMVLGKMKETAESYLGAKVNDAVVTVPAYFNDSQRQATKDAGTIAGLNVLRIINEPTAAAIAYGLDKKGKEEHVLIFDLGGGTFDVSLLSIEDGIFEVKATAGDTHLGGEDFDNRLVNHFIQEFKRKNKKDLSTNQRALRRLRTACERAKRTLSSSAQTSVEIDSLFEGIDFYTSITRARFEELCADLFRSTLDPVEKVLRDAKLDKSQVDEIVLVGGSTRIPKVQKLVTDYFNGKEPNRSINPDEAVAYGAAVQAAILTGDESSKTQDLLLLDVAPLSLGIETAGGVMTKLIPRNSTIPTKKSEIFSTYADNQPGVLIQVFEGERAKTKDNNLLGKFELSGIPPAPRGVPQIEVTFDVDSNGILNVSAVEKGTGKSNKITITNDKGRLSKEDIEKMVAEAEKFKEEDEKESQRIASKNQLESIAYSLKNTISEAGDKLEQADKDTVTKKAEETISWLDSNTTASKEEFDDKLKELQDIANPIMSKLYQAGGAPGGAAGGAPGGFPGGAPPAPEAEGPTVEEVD
Method: (§2) Six SSA1-specific Nanobodies (60=Nb clone CA17560 corresponding to SEQ ID NO: 19, 61=CA17561-SEQ ID NO: 20, 62=CA17562-SEQ ID NO: 21, 63=CA17563-SEQ ID NO: 22, 64=CA17564-SEQ ID NO: 23, 65=CA17565-SEQ ID NO: 24) were characterized by co-immunoprecipitation assays. Each SSA1-specific Nanobodies was covalently linked to NHS-agarose beads. The beads that were functionalized with these SSA1-specific Nanobodies were incubated for an hour at 4° C. on a rotating device with either an EBY100 lysate or the lysate of the engineered Yeast strain expressing SSA1 (Yeast GFP fusion collection reference: GFP(+)10, E4) as a GFP-tagged protein. After washing, these beads were resuspended in SDS-PAGE loading dye and analyzed on SDS-PAGE (FIG. 6A). Separated proteins were transferred to a PVDF membrane and the Western blot (FIG. 6B) was developed with GFP-specific antibody to confirm the presence of GFP-tagged SSA1.

[3] = molecular target: T4, SSA1 (native, from EBY100 lysate) (Saccharomyces cerevisiae, UniProt P10591 2-642); assay: co-IP, Nb on NHS-agarose beads, EBY100 yeast lysate, SDS-PAGE
T4 construct: mature; Endogenous untagged protein; also called YAL005C
T4 sequence (P10591 2-642): as above

GFP-tagged SSA1 [4] = molecular target: T3, GFP-tagged SSA1; assay: co-immunoprecipitation, Nb coupled to NHS-agarose beads, lysate of the yeast strain expressing the GFP-tagged target, Western blot anti-GFP
Method: as §2

GFP-tagged PGI1 = molecular target: T5, GFP-tagged PGI1 (Saccharomyces cerevisiae, UniProt P12709 2-554); assay: co-immunoprecipitation, Nb coupled to NHS-agarose beads, lysate of the yeast strain expressing the GFP-tagged target, SDS-PAGE
T5 construct: Yeast GFP Fusion Collection strain; 88 kDa band; also called GFP-PGI1; Yeast GFP fusion collection GFP(+)12, H11; not shown: GFP tag
T5 sequence (P12709 2-554): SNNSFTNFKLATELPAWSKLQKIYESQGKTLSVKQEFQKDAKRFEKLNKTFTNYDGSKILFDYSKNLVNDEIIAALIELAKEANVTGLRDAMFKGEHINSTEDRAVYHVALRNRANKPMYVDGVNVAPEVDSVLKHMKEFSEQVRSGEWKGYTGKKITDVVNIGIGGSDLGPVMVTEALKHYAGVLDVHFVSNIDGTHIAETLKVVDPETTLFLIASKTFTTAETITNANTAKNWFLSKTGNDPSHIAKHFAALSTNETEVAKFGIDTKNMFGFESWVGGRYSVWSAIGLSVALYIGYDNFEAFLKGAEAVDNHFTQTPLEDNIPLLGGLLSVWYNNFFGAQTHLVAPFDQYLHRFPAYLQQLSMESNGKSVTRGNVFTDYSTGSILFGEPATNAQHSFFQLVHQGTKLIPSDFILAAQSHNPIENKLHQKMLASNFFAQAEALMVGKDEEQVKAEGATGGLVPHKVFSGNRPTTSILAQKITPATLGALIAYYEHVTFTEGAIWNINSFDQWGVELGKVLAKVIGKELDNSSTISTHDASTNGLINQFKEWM
Method: (§3) Three PGI1-specific Nanobodies (55=Nb clone CA17455 corresponding to SEQ ID NO: 15, 56=CA17456-SEQ ID NO: 16, 57=CA17457-SEQ ID NO: 17) were characterized by co-immunoprecipitation assays. Each PGI1-specific Nanobodies was covalently linked to NHS-agarose beads. The beads that were functionalized with these PGI1-specific Nanobodies were incubated for an hour at 4° C. on a rotating device with either an EBY100 lysate or the lysate of the engineered Yeast strain expressing PGI1 (Yeast GFP fusion collection reference: GFP(+)12, H11) as a GFP-tagged protein. After washing, these beads were resuspended in SDS-PAGE loading dye and analyzed on SDS-PAGE (FIG. 7A). Separated proteins were transferred to a PVDF membrane and the Western blot (FIG. 7B) was developed with GFP-specific antibody to confirm the presence of GFP-tagged PGI1.

[5] = molecular target: T6, PGI1 (native, un-tagged, from EBY100 lysate) (Saccharomyces cerevisiae, UniProt P12709 2-554); assay: co-immunoprecipitation, Nb coupled to NHS-agarose beads, EBY100 yeast lysate (native target), SDS-PAGE
T6 construct: mature; Endogenous untagged protein, 61 kDa band; also called YBR196C; endogenous PGI1
T6 sequence (P12709 2-554): as above
Method: as §3

[6] = molecular target: T7, ALD6 (native, from EBY100 lysate) (Saccharomyces cerevisiae, UniProt P54115 2-500); assay: co-IP, Nb on NHS-agarose beads, EBY100 yeast lysate, SDS-PAGE
T7 construct: mature; Endogenous untagged protein; also called YPL061W
T7 sequence (looked up): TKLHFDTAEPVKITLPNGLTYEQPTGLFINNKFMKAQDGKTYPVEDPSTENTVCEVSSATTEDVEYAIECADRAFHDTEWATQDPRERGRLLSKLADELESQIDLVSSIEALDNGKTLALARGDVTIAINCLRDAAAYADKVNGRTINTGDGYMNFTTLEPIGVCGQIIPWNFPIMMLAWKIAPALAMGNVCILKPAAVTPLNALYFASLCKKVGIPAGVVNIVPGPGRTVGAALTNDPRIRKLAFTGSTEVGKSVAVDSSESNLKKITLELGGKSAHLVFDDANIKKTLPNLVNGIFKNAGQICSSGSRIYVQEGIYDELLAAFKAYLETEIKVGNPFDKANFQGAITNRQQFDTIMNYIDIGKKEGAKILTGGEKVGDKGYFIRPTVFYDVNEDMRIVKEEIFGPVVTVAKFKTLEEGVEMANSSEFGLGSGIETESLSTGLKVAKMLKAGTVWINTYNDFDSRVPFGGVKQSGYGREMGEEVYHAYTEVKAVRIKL

GFP-tagged ALD6 = molecular target: T8, GFP-tagged ALD6 (Saccharomyces cerevisiae, UniProt P54115 2-500); assay: co-immunoprecipitation, Nb coupled to NHS-agarose beads, lysate of the yeast strain expressing the GFP-tagged target, Western blot anti-GFP
T8 construct: Yeast GFP Fusion Collection strain; also called Yeast GFP fusion collection GFP(+)15, F1; not shown: GFP tag
T8 sequence (looked up): T7 sequence (looked up)
Method: One SIS1-specific Nanobody (44=Nb clone CA17444 corresponding to SEQ ID NO: 9), three ALD6-specific Nanobodies (53=CA17453-SEQ ID NO: 10, 54=CA17454-SEQ ID NO: 11, 60=CA17460-SEQ ID NO: 12), two BMH1-specific Nanobodies (58=CA17458-SEQ ID NO: 13, 59=CA17459-SEQ ID NO: 14) were characterized by co-immunoprecipitation assays. Each target-specific Nanobodies was covalently linked to NHS-agarose beads. The beads that were functionalized with these target-specific Nanobodies were incubated for an hour at 4° C. on a rotating device with either an EBY100 lysate or the lysate of the engineered Yeast strain expressing the target (Yeast GFP fusion collection reference for SIS1: GFP(+)22, E5, for ALD6: GFP(+)15, F1, for BMH1: GFP(+)27, D5) as a GFP-tagged protein. After washing, these beads were resuspended in SDS-PAGE loading dye and analyzed on SDS-PAGE (FIG. 8A). Separated proteins were transferred to a PVDF membrane and the Western blot (FIG. 8B) was developed with GFP-specific antibody to confirm the presence of GFP-tagged targets.

B1: CA17451 (VHH)
VHH: QVQLVESGGGLVQPGGSLRLSCAASGISFSINTLGWYRQAPGKQRELVATVTTGGSTYYVDSAKGRFTVSRDNAKNTVYLQMNSLNSEDTAVYYCKLERYGVWGQGTQVTVSS
notes: C-terminal 6xHis-EPEA tag is part of the entry
B1: binds (GFP-tagged PDC1); binds [1].

B2: CA17452 (VHH)
VHH: QVQLVESGGGLVQAGASLTLSCAASGRTFNTYSMHWFRQAPGKEREFVAATNWGGNSKFYADSVRGRFTISRDNTKNMVYLQMNSLKPEDTAVYYCAAHRTVVGKTPDYWGQGTQVTVSS
notes: as for B1
B2: binds (GFP-tagged PDC1); binds [1].

B3: CA17561 (VHH)
VHH: QVQLVESGGGLVQAGGSLRLSCAASTRTFSNYVMAWFRQAPGKEREFVGAINWSGGTEYYADSVKGRFTISRDNAKNTVYLQMNDLNPEDTANYYCAARRGTIARTALVKYLEYDYWGQGTQVTVSS
notes: as for B1
B3: binds (GFP-tagged SSA1 [2]); binds [3].

B4: CA17564 (VHH)
VHH: QVQLVESGGGLVQPGDSLRLSCVVSVQHFGNYIVGWFRQPPGKEREFVSAISRGLRTYYADSVKGRVTISRDNAKNSVYLQMNSLKPEDTAVYYCAGSRLLEGAPRDSRGYNNWGQGTQVTVSS
notes: as for B1
B4: binds (GFP-tagged SSA1 [4]); binds [3].

B5: CA17565 (VHH)
VHH: QVQLVESGGGRVQPGGSLRLSCVASGFTFTSYGMSWYRQTPGKEREFVAAISSESTWADYGDSVKGRFTISRDNAKKMVYLQMNSLKPDDTAVYYCNRDQVPWPTWGPGTQVTVSS
notes: as for B1
B5: binds (GFP-tagged SSA1 [4]); binds [3].

B6: CA17455 (VHH)
VHH: QVQLVESGGGLVQPGGSLRLSCAASGITFPSYRLSWYRQAPGKERELVAAITSDGGTTNYADFVKGRFTISRDNTKNTVYLQMNSLKPEDTAVYYCKAQYFSTPLTYWGQGTQVTVSS
notes: C-terminal 6xHis-EPEA tag is part of the entry; also called PGI1-specific trapper/stripper
B6: binds (GFP-tagged PGI1); binds [5].

B7: CA17456 (VHH)
VHH: QVQLVESGGGLVQPGGSLRLSCAASRSIVTINVMGWYRQAPGKEREFVAGATSGGSTDYADSVKGRFTISRDNAKNTVYLQMNSLKPEDTAVYYCNLRGTGYNYGENYWGKGTQVTVSS
notes: as for B1
B7: binds (GFP-tagged PGI1); binds [5].

B8: CA17457 (VHH)
VHH: QVQLVESGGGLVQTGGSLRLSCAASGGHFSNLAMGWFRQAPGKEREFVAAIGRSQFNLLYSNFVKGRFTISRDNAENTVYLQLNSLNSEDTAIYYCASSGGVSDWRGIMTTGARLARNYDYWGQGTQVTVSS
notes: as for B1
B8: binds (GFP-tagged PGI1); binds [5].

B9: CA17453 (VHH)
VHH: QVQLVESGGGVVQPGGSLRLSCAASGRIFIRSAWYRQAPGKQRALVASIFSGGTTNYADSVKGRFTISRDNAKNTVILEMNNLKPEDTAVYYCNVRVRSGTDYWGQGTQVTVSS
notes: as for B1
B9: binds [6]; binds (GFP-tagged ALD6).

B10: CA17454 (VHH)
VHH: QVQLVESGGGLVQPGGSLRLSCAASGSIFSRNYIAWYRQAPGKQRELVARKTQSGATVYADSVKGRFTISTNNAKNTMYLQMNILKPEDTAVYYCNAGGLIGSWGQGTQVTVSS
notes: as for B1
B10: binds [6]; binds (GFP-tagged ALD6).

B11: CA17460 (VHH)
VHH: QVQLVESGGGLVQPGDSLRLSCAASGFTVSTNTMTWVRQAPGKGLEWVSTKYSTGGTTYANSVKGRFTISRDNAKNTLYLQMNNLKPEDTAVYYCGGADYRGQGTQVTVSS
notes: as for B1
B11: binds [6]; binds (GFP-tagged ALD6).
